# Test results as given in PMC6053953.
# Values joined by “and” are separate entries in the source; they are usually repeats but may differ in a detail not shown here. Equal values may be shown once.
# Experiments:
# [1] = target: His6-tagged human peroxiredoxin 3 (human); test: AUC; sedimentation velocity, 20 C, 20 uM protein (monomer) in 100 mM ammonium acetate, pH 4.0; c(s) distribution; step: ring-to-ring stacking
# [2] = target: His6-tagged human peroxiredoxin 3 (human); test: native MS; 20 uM protein (monomer) buffer exchanged from pH 8.0 into 100 mM ammonium acetate, pH 4.0; spectra from 60 seconds (0 hours) to 3 hours after exchange; step: ring-to-ring stacking
# [3] = target: His6-tagged human peroxiredoxin 3 (human); test: native MS; 20 uM protein (monomer) in 100 mM ammonium acetate, pH 8.0; trap collision energy 20 V; step: chains to the dodecameric ring
# [4] = target: His6-tagged human peroxiredoxin 3 (human); test: native MS; protein buffer exchanged from 100 mM ammonium acetate, pH 4.0, back into pH 8.0 before injection; step: stacks of rings back to single rings
# [5] = target: His6-tagged human peroxiredoxin 3 (human); test: SEC-SLS; Superdex 200 Increase 10/300 GL with refractive index and right-angle light scattering, 28 C; 20 uM protein in 100 mM ammonium acetate, pH 8.0; step: chains to the dodecameric ring
# [6] = target: cleaved human peroxiredoxin 3 (human); test: AUC; sedimentation velocity, 20 C, 20 uM protein (monomer) in 100 mM ammonium acetate, pH 4.0; c(s) distribution; step: ring-to-ring stacking
# [7] = target: cleaved human peroxiredoxin 3 (human); test: native MS; 20 uM protein (monomer) buffer exchanged from pH 8.0 into 100 mM ammonium acetate, pH 4.0; spectra from 60 seconds (0 hours) to 3 hours after exchange; step: ring-to-ring stacking
# [8] = target: cleaved human peroxiredoxin 3 (human); test: native MS; 20 uM protein (monomer) in 100 mM ammonium acetate, pH 8.0; trap collision energy 20 V; step: chains to the dodecameric ring
# [9] = target: cleaved human peroxiredoxin 3 (human); test: native MS; protein buffer exchanged from 100 mM ammonium acetate, pH 4.0, back into pH 8.0 before injection; step: stacks of rings back to single rings
# [10] = target: cleaved human peroxiredoxin 3 (human); test: SEC-SLS; Superdex 200 Increase 10/300 GL with refractive index and right-angle light scattering, 28 C; 20 uM protein in 100 mM ammonium acetate, pH 8.0; step: chains to the dodecameric ring
rings in a stack [1],rings in a stack [2],stoichiometry N [3],rings in a stack [4],stoichiometry N [5],rings in a stack (main population) [6],rings in a stack [7],rings in the most populated stack [7],stoichiometry N [8],rings in a stack [9],stoichiometry N [10],Substance
2 rings and 4 rings,2 to 3 rings,12,1 rings,12,–,–,–,–,–,–,His6-tagged human peroxiredoxin 3 (natural protein)
–,–,–,–,–,34 rings,6 rings,3 rings,12,1 rings and 2 rings,12,cleaved human peroxiredoxin 3 (natural protein)
